Values quoted from earlier work, collected in publication PMC7970000.
Like-named read-outs stand apart in the source and are kept apart here.

Legend:
[1] = molecular target: SNX3-retromer complex (Homo sapiens) (UniProt O60493)
retromer (Homo sapiens) = retromer (Homo sapiens) (UniProt O75436)
VPS29 (Homo sapiens) [2] = molecular target: VPS29 (Homo sapiens) (UniProt Q9UBQ0)
VPS29 (Homo sapiens) [3] = molecular target: VPS29 (Homo sapiens) (UniProt Q9UBQ0); remark: listed apart in the source

Sequence of UniProt O60493 (O60493 2-162, chain 1 of 2): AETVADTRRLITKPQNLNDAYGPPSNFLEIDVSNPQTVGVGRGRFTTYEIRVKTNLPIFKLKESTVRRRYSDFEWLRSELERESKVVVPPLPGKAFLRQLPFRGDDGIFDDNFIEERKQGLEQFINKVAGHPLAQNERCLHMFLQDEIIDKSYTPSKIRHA
Sequence of UniProt O60493 (O75436 whole entry, chain 2 of 2, further chain): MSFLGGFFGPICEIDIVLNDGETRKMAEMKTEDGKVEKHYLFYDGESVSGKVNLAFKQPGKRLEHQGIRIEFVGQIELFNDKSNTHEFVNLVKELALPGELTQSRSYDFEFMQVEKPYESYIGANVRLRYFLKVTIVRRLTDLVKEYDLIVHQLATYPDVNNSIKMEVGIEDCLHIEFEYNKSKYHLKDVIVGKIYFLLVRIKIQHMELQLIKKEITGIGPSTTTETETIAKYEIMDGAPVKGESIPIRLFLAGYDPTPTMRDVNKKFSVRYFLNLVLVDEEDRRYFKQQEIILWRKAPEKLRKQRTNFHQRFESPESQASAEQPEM
Sequence of UniProt O75436 (O75436 whole entry): as the sequence (O75436 whole entry, chain 2 of 2, further chain) above

DMT1-II (from UniProt P49281)
Kd [1]: 127 µM

TBC1D5 (from UniProt Q92609)
Kd (retromer (Homo sapiens)): 0.335 µM
Kd (VPS29 (Homo sapiens) [2]): 20 µM

VARP CHPLCxCxxC motif (from UniProt Q96NW4)
Kd (VPS29 (Homo sapiens) [3]): 3.5 µM
